Experimental data as given in the supplement of paper PMC9732359.
± gives the uncertainty stated by the source.

Assay: protein stability index of a GFP-peptide fusion (yeast GPS) (PSI 1-4); higher = more stable; sorted into four equal gates, so the index is relative within each strain
In short: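 Sequencing reads from sorted gates were used to score each peptide. The library consisted of tiled 17-residue yeast protein peptides fused downstream of GFP on a Cherry-expressing plasmid, pooled and carried in yeast. Mid-log cultures in leucine-free medium were split into four equal gates by GFP/Cherry ratio, and each gate's plasmids were PCR-amplified and Illumina-sequenced. The protein stability index adds up, over all gates, the read frequency multiplied by the gate number.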

Row | Sequence | protein stability index (doa10∆) | protein stability index (pdr5∆) | protein stability index (san1∆) | protein stability index (ubr1∆)
1 | DIKAPSTFENRNVGKTL [RPS1A] | 2.95 ± 0.074 | 2.72 ± 0.06 | 3 ± 0.052 | 3.1 ± 0.057
2 | MWSVARAGQRGYHSRTS [RPL3] | 2.86 ± 0.11 | 3.14 ± 0.091 | 3.16 ± 0.069 | 3.11 ± 0.095
3 | SVYYHKGNFRTKPFENV [SNU114] | 3.35 ± 0.065 | 3.35 ± 0.091 | 3.37 ± 0.059 | 3.31 ± 0.092
4 | KTLKRMIKESSTANPNI [POP1] | 2.54 ± 0.1 | 2.76 ± 0.091 | 2.28 ± 0.092 | 2.67 ± 0.054
5 | TTRNGFMEAQGAGIQII [FAS2] | 2.81 ± 0.13 | 2.31 ± 0.12 |  | 3.26 ± 0.11
6 | GSPSLTSPQYIPSPLSS [NUT1] | 2.56 ± 0.042 | 2.52 ± 0.033 | 2.65 ± 0.037 | 2.52 ± 0.028
7 | EQDALFITRLAQGLLHL [RPN1] | 2.88 ± 0.1 | 2.69 ± 0.12 | 2.38 ± 0.14 | 2.29 ± 0.14
8 | VTRGISVLKDSDDKTRQ [PRE1] | 3.16 ± 0.078 | 3.28 ± 0.066 | 3.18 ± 0.056 | 3.17 ± 0.059
9 | KTVKELRQLLKERYTVE [RRI1] | 2.74 ± 0.054 | 2.1 ± 0.062 | 2.1 ± 0.066 | 3.06 ± 0.068
10 | KMVGLRGFNNQIMQLKK [SNF2] | 3.35 ± 0.063 | 3.21 ± 0.073 | 3.04 ± 0.068 | 3.35 ± 0.041
11 | GVEEEEELKDSEINEIL [SNF2] | 3.14 ± 0.16 | 3.33 ± 0.11 | 2.31 ± 0.12 | 2.72 ± 0.075
12 | QEQITLYDHWDKYHEQW [SSN8] | 3.32 ± 0.19 | 3.12 ± 0.12 | 2.84 ± 0.071 | 2.76 ± 0.046
13 | IDVTFTKVNNQLIKVAV [RPL9A] | 2.23 ± 0.068 | 1.87 ± 0.048 | 1.75 ± 0.087 | 2.44 ± 0.036
14 | VNCLELLINTNFNKFFK [PCI8] | 1.77 ± 0.045 | 1.88 ± 0.048 | 1.96 ± 0.065 | 1.99 ± 0.064
15 | TVEGISKLLREHGYQSR [RPB2] | 3.4 ± 0.21 | 2.97 ± 0.21 |  | 2.64 ± 0.093
16 | GGGWDNVDQTKTQCPNY [RPC11] | 3.47 ± 0.13 | 3.25 ± 0.17 | 3.07 ± 0.078 | 3.22 ± 0.09
17 | GEKIDSNKPIFLFAPEL [SWI1] | 2.62 ± 0.1 | 2.54 ± 0.21 | 2.59 ± 0.21 | 2.91 ± 0.23
18 | IRTQVNTGGESVVKKED [RGR1] | 3.32 ± 0.18 | 3.5 ± 0.093 | 3.41 ± 0.098 | 3.4 ± 0.088
19 | KSNVIDSMLFVFGFRAN [SMC4] | 2.26 ± 0.049 | 2.39 ± 0.054 | 2.16 ± 0.078 | 2.68 ± 0.059
20 | RHLRRTGKVSEFISIYS [RET1] | 1.48 ± 0.14 | 2.05 ± 0.13 |  | 1.37 ± 0.14
21 | LYDNFVSKFYDKINQLS [RPN9] | 2.78 ± 0.098 | 2.69 ± 0.077 | 1.58 ± 0.15 | 2.43 ± 0.077
22 | AAKLRTLDYAERHGYIR [RPL2A] | 3.38 ± 0.11 | 3.27 ± 0.14 | 2.9 ± 0.16 | 3.37 ± 0.13
23 | AVKDQQKYTKEMIDSHI [SNF2] | 2.8 ± 0.062 | 2.68 ± 0.051 | 2.38 ± 0.068 | 2.95 ± 0.043
24 | LVQKFGGADQVTRTQQW [SWI1] | 3.08 ± 0.13 | 3.06 ± 0.088 | 2.88 ± 0.13 | 2.78 ± 0.076
25 | DESLKDEATVPNTRDAE [SWI3] | 3.16 ± 0.074 | 3.31 ± 0.082 | 3.19 ± 0.13 | 3.14 ± 0.077
26 | QESSSTLSTHSTTTSVN [SIN4] | 3.04 ± 0.04 | 3.12 ± 0.037 | 3.12 ± 0.028 | 3.132 ± 0.029
